This is an account of results in the supplement of paper PMC10065799, “High-throughput profiling of sequence recognition by tyrosine kinases and SH2 domains using bacterial peptide display” (eLife, 2023).

One series concerns AncSZ. Kind of series: phosphorylation enrichment, bacterial display (enrichment ratio); higher = better substrate or ligand; peptides without Tyr show the background.
A further series concerns the target EPHB1 (UniProt P54762). The series is described as above.
Another series concerns the target EPHB2 (UniProt P29323). The series is described as above.
A further series deals with FGFR1 (UniProt P11362). The description is as above.
For the next series, the target named is FGFR3 (UniProt P22607). The series is described as above.
Another series concerns Fer (mouse). The series is described as above.
A further series concerns the target Fes (UniProt P07332). Described as above.
The target in a further series is Fyn (UniProt P06241). The description is as above.
In a further series the target is Hck (UniProt P08631). The series is described as above.
A further series addresses Jak2 (UniProt O60674). The series is described as above.
The target in a further series is MERTK (UniProt Q12866). The description is as above.
The next series deals with c-Abl (mouse). The description is as above.
The next series deals with c-Src. The description is as above.
The target of a further series is Grb2 SH2 (UniProt P62993). Kind of series: SH2 binding enrichment of the phosphorylated peptide, bacterial display (enrichment ratio); higher = better substrate or ligand; peptides without Tyr show the background.
The target in another series is SHP2-C SH2. Described as above.
Another series concerns the target c-Src SH2. Described as above.
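Throughout, for SH2 binding enrichment of the phosphorylated peptide, bacterial display: peptide library displayed on the E. coli surface as eCPX fusions, selected cells deep-sequenced, score is each peptide's frequency after selection divided by its frequency in the input.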
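Throughout, for phosphorylation enrichment, bacterial display: 11-residue human phosphosite peptides and single-mutation variants displayed on the E. coli surface, counted by deep sequencing, each peptide's frequency after selection divided by its frequency in the unselected input library; frequency after pTyr selection over input frequency; kinase dosed for 20-30% of maximal phosphorylation in three min.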

Chain of Hck (P08631 whole entry, looked up): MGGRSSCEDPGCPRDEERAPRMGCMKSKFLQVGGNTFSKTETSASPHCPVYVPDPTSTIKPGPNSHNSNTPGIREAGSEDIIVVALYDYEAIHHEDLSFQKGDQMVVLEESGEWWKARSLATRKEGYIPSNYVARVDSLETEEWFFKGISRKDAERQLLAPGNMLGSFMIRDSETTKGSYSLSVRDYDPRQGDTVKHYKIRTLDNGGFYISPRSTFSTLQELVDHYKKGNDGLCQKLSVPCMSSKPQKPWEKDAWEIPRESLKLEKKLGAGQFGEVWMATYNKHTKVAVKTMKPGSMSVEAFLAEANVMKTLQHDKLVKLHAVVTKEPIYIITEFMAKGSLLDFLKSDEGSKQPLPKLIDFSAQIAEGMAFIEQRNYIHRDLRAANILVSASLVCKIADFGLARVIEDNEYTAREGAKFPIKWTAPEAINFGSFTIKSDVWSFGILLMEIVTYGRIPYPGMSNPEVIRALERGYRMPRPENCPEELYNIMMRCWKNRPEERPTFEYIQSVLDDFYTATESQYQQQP
Chain of FGFR1 (P11362 whole entry, looked up): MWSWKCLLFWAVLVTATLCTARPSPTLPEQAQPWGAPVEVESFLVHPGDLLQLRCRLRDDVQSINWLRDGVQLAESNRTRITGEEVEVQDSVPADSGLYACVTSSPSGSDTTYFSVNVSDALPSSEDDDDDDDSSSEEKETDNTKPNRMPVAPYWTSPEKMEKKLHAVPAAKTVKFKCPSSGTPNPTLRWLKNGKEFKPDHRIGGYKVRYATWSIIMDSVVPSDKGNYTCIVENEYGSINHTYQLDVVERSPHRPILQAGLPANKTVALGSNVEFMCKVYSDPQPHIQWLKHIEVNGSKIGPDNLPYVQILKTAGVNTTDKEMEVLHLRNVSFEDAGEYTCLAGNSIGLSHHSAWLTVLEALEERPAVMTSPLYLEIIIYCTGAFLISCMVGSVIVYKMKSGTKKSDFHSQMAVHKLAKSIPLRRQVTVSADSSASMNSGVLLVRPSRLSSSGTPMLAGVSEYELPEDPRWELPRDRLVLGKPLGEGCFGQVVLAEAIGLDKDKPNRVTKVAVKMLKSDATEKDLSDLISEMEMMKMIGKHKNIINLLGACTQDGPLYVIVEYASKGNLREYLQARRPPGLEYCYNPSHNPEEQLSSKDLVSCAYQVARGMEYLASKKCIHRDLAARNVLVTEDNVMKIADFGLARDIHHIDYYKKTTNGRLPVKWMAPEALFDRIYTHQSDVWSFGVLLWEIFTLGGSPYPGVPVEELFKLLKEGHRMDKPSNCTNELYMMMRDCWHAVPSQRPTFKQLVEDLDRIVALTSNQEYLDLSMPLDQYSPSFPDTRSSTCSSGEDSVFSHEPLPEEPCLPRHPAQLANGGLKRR
Chain of MERTK (Q12866 whole entry, looked up): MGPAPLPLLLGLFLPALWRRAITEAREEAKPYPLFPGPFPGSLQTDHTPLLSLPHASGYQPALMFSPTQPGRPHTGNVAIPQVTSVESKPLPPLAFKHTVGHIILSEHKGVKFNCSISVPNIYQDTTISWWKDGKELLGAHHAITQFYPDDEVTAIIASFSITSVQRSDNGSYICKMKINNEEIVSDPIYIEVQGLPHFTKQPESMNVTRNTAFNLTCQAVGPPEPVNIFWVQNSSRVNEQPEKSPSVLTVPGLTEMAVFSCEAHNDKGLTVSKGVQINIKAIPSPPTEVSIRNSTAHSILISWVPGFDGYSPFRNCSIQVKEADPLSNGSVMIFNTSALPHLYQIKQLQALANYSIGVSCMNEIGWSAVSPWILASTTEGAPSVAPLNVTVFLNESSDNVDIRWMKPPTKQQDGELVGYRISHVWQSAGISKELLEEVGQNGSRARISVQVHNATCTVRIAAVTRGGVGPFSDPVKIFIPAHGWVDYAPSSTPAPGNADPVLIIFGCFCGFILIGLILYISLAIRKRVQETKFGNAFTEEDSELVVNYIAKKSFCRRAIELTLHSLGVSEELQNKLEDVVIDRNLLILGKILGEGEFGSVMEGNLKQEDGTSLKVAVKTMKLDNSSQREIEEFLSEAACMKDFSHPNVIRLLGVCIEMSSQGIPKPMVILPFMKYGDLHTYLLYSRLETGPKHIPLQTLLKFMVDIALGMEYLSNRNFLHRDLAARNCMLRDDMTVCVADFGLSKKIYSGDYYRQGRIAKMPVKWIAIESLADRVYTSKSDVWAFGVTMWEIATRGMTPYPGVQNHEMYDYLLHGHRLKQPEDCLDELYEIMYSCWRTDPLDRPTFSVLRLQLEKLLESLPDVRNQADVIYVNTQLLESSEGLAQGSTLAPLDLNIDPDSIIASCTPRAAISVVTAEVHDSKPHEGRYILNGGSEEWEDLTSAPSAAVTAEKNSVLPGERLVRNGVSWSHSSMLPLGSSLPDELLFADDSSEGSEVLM
Chain of Fyn (P06241 whole entry, looked up): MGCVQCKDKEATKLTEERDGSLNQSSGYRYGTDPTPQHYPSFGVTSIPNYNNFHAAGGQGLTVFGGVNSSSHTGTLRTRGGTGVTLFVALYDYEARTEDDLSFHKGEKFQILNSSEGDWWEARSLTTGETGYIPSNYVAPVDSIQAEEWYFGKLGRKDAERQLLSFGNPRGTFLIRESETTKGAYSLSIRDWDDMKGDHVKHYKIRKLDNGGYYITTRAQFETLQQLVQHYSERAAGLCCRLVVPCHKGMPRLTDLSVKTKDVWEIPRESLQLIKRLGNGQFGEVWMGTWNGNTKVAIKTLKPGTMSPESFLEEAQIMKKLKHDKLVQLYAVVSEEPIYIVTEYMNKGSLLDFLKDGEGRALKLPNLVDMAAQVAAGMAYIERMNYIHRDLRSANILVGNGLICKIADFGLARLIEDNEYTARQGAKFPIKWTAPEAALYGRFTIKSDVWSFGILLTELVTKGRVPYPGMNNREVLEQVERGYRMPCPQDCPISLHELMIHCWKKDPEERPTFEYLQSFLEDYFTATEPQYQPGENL
Chain of Grb2 SH2 (P62993 whole entry, looked up): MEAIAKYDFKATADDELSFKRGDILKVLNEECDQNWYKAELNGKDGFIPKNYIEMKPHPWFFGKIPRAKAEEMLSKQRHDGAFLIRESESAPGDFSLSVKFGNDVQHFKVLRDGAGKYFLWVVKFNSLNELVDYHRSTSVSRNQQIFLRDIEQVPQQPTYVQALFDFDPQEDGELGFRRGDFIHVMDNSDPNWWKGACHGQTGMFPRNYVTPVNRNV
Chain of FGFR3 (P22607 whole entry, looked up): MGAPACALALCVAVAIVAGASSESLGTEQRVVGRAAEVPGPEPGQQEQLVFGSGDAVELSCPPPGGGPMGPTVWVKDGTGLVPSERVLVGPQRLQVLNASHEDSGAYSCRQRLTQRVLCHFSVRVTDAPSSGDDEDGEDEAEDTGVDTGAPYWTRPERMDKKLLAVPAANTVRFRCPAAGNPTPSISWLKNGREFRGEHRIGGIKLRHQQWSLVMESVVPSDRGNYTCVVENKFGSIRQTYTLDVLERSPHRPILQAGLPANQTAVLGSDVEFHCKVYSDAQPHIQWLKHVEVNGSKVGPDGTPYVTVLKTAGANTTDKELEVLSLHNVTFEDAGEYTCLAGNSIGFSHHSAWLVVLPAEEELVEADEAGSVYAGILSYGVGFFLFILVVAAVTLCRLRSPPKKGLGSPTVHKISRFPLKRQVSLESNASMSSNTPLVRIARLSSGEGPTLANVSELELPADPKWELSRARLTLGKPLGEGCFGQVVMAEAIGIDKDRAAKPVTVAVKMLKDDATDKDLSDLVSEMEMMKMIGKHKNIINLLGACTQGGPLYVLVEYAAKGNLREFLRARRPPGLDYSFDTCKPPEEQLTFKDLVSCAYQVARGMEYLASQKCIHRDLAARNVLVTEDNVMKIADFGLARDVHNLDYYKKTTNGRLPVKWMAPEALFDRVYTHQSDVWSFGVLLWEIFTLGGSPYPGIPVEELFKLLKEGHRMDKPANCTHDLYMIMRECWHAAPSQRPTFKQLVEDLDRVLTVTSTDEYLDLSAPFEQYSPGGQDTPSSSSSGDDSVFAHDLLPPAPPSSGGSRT
Chain of EPHB2 (P29323 whole entry, looked up): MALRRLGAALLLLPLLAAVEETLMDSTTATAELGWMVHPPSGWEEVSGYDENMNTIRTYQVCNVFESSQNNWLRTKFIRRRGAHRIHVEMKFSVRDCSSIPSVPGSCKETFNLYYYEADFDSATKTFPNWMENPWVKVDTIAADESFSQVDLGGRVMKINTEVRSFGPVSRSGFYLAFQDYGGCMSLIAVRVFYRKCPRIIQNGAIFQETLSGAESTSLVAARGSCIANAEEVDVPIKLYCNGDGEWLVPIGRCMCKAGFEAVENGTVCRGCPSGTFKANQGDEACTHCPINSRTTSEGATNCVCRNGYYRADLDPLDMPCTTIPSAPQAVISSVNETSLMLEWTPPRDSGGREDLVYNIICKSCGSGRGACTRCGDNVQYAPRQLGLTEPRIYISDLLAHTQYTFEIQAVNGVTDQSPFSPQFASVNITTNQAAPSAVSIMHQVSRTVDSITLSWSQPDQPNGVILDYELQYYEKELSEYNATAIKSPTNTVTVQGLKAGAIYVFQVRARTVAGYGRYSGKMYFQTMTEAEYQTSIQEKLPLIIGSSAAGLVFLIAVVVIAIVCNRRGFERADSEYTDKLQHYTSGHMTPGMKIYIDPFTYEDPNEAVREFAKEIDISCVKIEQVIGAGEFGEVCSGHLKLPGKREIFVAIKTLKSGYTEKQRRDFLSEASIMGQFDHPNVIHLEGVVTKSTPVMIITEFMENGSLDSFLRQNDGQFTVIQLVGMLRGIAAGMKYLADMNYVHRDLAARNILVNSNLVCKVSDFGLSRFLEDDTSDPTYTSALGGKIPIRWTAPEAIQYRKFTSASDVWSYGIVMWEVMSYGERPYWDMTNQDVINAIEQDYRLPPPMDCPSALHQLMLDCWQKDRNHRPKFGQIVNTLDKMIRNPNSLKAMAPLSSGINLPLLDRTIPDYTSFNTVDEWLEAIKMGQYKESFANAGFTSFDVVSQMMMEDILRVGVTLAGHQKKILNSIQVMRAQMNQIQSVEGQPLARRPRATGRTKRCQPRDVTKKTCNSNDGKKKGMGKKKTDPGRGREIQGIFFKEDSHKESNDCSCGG

For the sequence IKETHYMVDRC, the phosphorylation enrichment in the series on AncSZ was found to be 0.992; with EPHB1, 0.472; with EPHB2, 0.704; with FGFR1, 0.555; with FGFR3, 0.579; with Fer (mouse), 0.47. The phosphorylation enrichment with Fes came to 0.992; with Fyn, 0.455; with Hck it was 0.461; with Jak2, 0.654; with MERTK, 0.481; in the series on c-Abl (mouse), 0.581. Moreover, in the series on c-Src, the phosphorylation enrichment was found to be 0.464. Besides, the values for the SH2 binding enrichment with Grb2 SH2, with SHP2-C SH2 and in the series with c-Src SH2 were 0.78, 0.623 and 0.465, respectively.
As for IKGIRYLHHRG [GUCY2D_Y656], the phosphorylation enrichment with AncSZ is 0.466; with EPHB1, 0.423; in the series with EPHB2, 0.358; in the series with FGFR1, 0.348; with FGFR3, 0.363; with Fer (mouse), 0.432. Moreover, the phosphorylation enrichment with Fes was determined as 0.469; in the series with Fyn, 0.415; with Hck, 0.344; in the series with Jak2, 0.597; with MERTK, 0.376; in the series with c-Abl (mouse) it was 0.497. Further, in the series on c-Src, the phosphorylation enrichment is 0.439. The SH2 binding enrichment came out at 1.39 with Grb2 SH2, 0.966 with SHP2-C SH2 and 1.01 with c-Src SH2.
Regarding ILGTFYETGSI [PAX2_Y73_R71T_YF], the phosphorylation enrichment turned out to be 0.773 in the series on AncSZ; 0.466 with EPHB1; 0.541 in the series with EPHB2; 0.582 in the series with FGFR1; 0.526 with FGFR3; 0.749 in the series with Fer (mouse). For the same sequence, the phosphorylation enrichment is 0.956 with Fes; 0.524 with Fyn; 0.621 with Hck; 0.871 with Jak2; 0.568 in the series with MERTK; 0.587 in the series with c-Abl (mouse). Besides, the phosphorylation enrichment in the series with c-Src turned out to be 0.529. Besides, the SH2 binding enrichment with Grb2 SH2 was 0.841; with SHP2-C SH2, 0.837; in the series with c-Src SH2, 0.619.
For ILGTYYETGSI [PAX2_Y73_R71T], the phosphorylation enrichment in the series with AncSZ was found to be 0.971; with EPHB1 it was 2.54; in the series with EPHB2 it was 2.19; with FGFR1 it was 9.71; with FGFR3, 8.15; with Fer (mouse), 0.645. Further, the phosphorylation enrichment is 1.04 with Fes; 4.14 with Fyn; 2.99 in the series with Hck; 1.28 with Jak2; 3.6 with MERTK; 1.16 in the series on c-Abl (mouse). Further, the phosphorylation enrichment in the series with c-Src turned out to be 4.01. Besides, the SH2 binding enrichment is 0.998 with Grb2 SH2, 0.559 with SHP2-C SH2 and 1.4 in the series with c-Src SH2.
Turning to ILLAGCLVMVI [SLC28A3_Y113_Y113C], the phosphorylation enrichment with AncSZ turned out to be 1.24; in the series with EPHB1, 0.607; with EPHB2, 0.614; in the series with FGFR1, 0.422; in the series with FGFR3, 0.829; in the series on Fer (mouse), 0.493. Moreover, the phosphorylation enrichment in the series with Fes came to 1.26; with Fyn, 0.471; with Hck, 0.51; with Jak2, 1.18; with MERTK, 0.486; with c-Abl (mouse), 0.995. Besides, the phosphorylation enrichment in the series on c-Src was found to be 0.475. Further, the SH2 binding enrichment in the series with Grb2 SH2 stood at 0.92; in the series with SHP2-C SH2, 0.534; with c-Src SH2, 0.533.
Regarding ILTLKYPIKHG [ACTA1_Y71_E74K], the phosphorylation enrichment with AncSZ was determined as 0.523; in the series with EPHB1, 0.426; with EPHB2, 0.518; with FGFR1 it was 0.449; in the series with FGFR3, 0.497; in the series on Fer (mouse) it was 0.413. For the same sequence, the phosphorylation enrichment turned out to be 0.588 in the series with Fes; 0.431 in the series with Fyn; 0.349 in the series with Hck; 0.558 in the series with Jak2; 0.344 with MERTK; 0.367 with c-Abl (mouse). Further, in the series on c-Src, the phosphorylation enrichment was 0.341. The SH2 binding enrichment with Grb2 SH2 amounted to 1.12; in the series with SHP2-C SH2, 1.46; with c-Src SH2 it was 0.787.
As to INITIYGKTFH [EFHC1_Y177_R182H], the phosphorylation enrichment in the series on AncSZ was 1.11; in the series with EPHB1 it was 0.546; with EPHB2, 0.513; with FGFR1, 0.429; with FGFR3, 0.817; in the series with Fer (mouse), 0.579. Also, the phosphorylation enrichment with Fes turned out to be 1.44; with Fyn, 0.519; with Hck it was 0.544; with Jak2, 1.08; with MERTK it was 0.473; with c-Abl (mouse), 0.958. Further, in the series on c-Src, the phosphorylation enrichment was determined as 0.468. In addition, the SH2 binding enrichment in the series with Grb2 SH2 worked out at 1.15; with SHP2-C SH2 it was 0.781; with c-Src SH2, 0.47.
As for INMKEYCKKDF [NTN1_Y490_K489E_YF], the phosphorylation enrichment in the series with AncSZ is 0.877; with EPHB1, 0.66; with EPHB2, 0.678; in the series with FGFR1, 0.512; in the series with FGFR3, 0.743; in the series with Fer (mouse), 0.427. Also, the phosphorylation enrichment in the series with Fes was determined as 1.12; in the series with Fyn it was 0.669; with Hck, 0.498; in the series with Jak2, 0.937; with MERTK, 0.468; in the series on c-Abl (mouse), 0.791. In addition, in the series on c-Src, the phosphorylation enrichment came out at 0.476. In addition, the values for the SH2 binding enrichment with Grb2 SH2, in the series with SHP2-C SH2 and with c-Src SH2 were 1.01, 0.65 and 0.574, respectively.
